Consider one molecule from paper doi:10.1101/2024.03.19.585385 (bioRxiv, 2024).

The assay addresses T1, RNAP α subunit (αI) (T. thermophilus, UniProt Q5SHR6 1-315).
T1 sequence (looked up): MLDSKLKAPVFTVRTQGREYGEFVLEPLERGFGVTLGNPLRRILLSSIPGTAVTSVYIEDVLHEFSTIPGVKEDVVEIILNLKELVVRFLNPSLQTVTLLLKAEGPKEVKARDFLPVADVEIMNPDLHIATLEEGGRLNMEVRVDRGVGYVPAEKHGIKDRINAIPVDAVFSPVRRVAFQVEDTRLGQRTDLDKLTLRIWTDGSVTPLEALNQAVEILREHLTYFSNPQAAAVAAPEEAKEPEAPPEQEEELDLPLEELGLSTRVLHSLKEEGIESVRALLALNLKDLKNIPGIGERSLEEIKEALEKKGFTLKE
In words: cryo-EM structure.

B1: ribosomal protein S10 (NusE) (natural protein, T. thermophilus, UniProt Q5SHN7 1-105, looked up)
chain: MPKIRIKLRGFDHKTLDASAQKIVEAARRSGAQVSGPIPLPTRVRRFTVIRGPFKHKDSREHFELRTHNRLVDIINPNRKTIEQLMTLDLPTGVEIEIKTVGGGR
B1: the binding result is reported as “binds”.
